Consider one molecule from paper PMC5531264.

Targets include SAMHD1 RK (human, UniProt Q9Y3Z3 1-626, R333E;K336E); SAMHD1 RKRR (human, UniProt Q9Y3Z3 1-626, R333E;K336E;R371E;R372E); SAMHD1 RR (human, UniProt Q9Y3Z3 1-626, R371E;R372E).
Assay in all cases: fluorescence anisotropy
(In general: Polarisation of emitted light reports the rotation of a fluorescent probe.)

Series [1] addresses T1, SAMHD1 C-terminal peptide (human, UniProt Q9Y3Z3 583-626).
T1 chain: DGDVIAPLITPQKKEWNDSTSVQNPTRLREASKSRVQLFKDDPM

For series [2], the target named is T2, SAMHD1 wild-type (human, UniProt Q9Y3Z3 1-626).
Series [3] deals with T2, SAMHD1 wild-type. This is another data set of the same source.

Where two headings read alike, the source gives them in different places.

B1: FAM-dT60 (ssDNA)
DNA: TTTTTTTTTTTTTTTTTTTTTTTTTTTTTTTTTTTTTTTTTTTTTTTTTTTTTTTTTTTT
B1 showed a Kd in series [1] of 54 ± 5 µM. Also, the “apparent K (half saturation)” value in the series with SAMHD1 RK worked out at 7.6 ± 0.4 µM; with SAMHD1 RKRR, 30 ± 2 µM; with SAMHD1 RR, 15 ± 1 µM; with SAMHD1 wild-type [2] it was 500 ± 100 nM; in the series with SAMHD1 wild-type [3], 700 ± 100 nM.

As a reminder, the Kd is a measure of binding affinity in units of concentration. A low value points to higher affinity.
